Measured values taken from publication PMC5818064.

Target: RBD–GFP11 (Rho-binding domain of Rhotekin fused to GFP β-strand 11) (UniProt Q8C6B2)
Assay: split reporter (BiFC, NanoBiT); tripartite split-GFP; HEK_GFP1-9 cells stably expressing GFP1-9, transiently co-transfected with GFP10 and GFP11 fusions (1:1); fixed, double immunostaining with anti-GFP10 and anti-GFP11; flow cytometry, mean GFP fluorescence in the GFP10+ GFP11+ gate

Chain of UniProt Q8C6B2 (Q8C6B2 whole entry, the tested form may be a part): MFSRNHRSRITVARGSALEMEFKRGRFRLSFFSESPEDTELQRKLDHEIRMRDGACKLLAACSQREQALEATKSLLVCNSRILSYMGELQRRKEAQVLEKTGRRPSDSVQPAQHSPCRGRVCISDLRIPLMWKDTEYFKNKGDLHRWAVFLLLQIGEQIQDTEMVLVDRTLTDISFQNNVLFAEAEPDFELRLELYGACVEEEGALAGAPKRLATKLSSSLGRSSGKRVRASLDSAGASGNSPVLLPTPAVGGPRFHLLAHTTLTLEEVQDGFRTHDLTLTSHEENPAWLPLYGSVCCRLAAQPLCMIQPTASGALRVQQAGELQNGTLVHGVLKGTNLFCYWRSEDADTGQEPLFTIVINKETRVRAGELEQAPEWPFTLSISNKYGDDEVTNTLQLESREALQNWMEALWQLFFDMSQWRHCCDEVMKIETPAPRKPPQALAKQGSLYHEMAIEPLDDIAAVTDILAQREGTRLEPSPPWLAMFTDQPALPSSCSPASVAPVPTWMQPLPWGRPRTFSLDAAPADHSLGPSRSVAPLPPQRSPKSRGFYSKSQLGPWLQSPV

fold change of mean GFP fluorescence against the dominant-negative mutant [fold]	Substance
5	GFP10–RhoA L63 (constitutively active RhoA mutant fused to GFP β-strand 10) (from UniProt P61586 1-193) (natural protein)
5	GFP10–RhoB L63 (constitutively active RhoB mutant fused to GFP β-strand 10) (from UniProt P62745 1-196) (natural protein)
